US20250074984A1

Assays:
FcγRIIβ [1] = molecular target: FcγRIIβ (UniProt P31994); assay: ratio of the chip-kinetics KDs on Hu FcgRIIA_R167 and Hu FcgRIIB
FcγRIIβ [2] = molecular target: FcγRIIβ (UniProt P31994); assay: chip kinetics; antibody captured on protein A/G, receptor injected as analyte
[3] = molecular target: human FcγRIIα_R167 (human) (UniProt P12318); assay: as above
FcγRIIβ [4] = molecular target: FcγRIIβ (UniProt P31994); assay: ratio of the chip-kinetics KDs on Hu FcgRIIB and Hu FcgRIIA_R167
[5] = molecular target: human FcγRIIα_H167 (human) (UniProt P12318); assay: chip kinetics; antibody captured on protein A/G, receptor injected as analyte
Sequence of human FcγRIIα_H167 (human) (P12318 36-218): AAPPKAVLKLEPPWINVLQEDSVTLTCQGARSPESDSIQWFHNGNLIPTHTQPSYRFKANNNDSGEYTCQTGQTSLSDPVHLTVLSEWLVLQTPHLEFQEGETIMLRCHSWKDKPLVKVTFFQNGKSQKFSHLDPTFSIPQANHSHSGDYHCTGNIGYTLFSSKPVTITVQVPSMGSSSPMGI

Sequence of FcγRIIβ (P31994 46-217): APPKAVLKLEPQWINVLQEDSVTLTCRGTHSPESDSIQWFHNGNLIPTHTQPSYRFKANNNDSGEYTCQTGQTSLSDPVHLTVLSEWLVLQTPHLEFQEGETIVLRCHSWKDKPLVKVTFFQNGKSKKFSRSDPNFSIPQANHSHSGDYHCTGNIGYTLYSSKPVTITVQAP
Sequence of human FcγRIIα_R167 (human) (P12318 36-218 H167R): as the sequence (P12318 36-218) above, with H132R counted along it

Substance	Ratio iia/iib (KD human iia R/KD human iib) (FcγRIIβ [1])	Fold = KD(IgG WT)/KD(variants) (FcγRIIβ [2]) [fold]	Kd (FcγRIIβ [2]) [nM]	Fold = KD(IgG WT)/KD(variants) [3] [fold]	Ratio iib/iia (KD human iib/KD human iia R) (FcγRIIβ [4])	Kd [5] [nM]	Kd [3] [nM]
IgG1 P238D (antibody)	3.12	3.18	1600	< 0.3	0.32	–	–
IgG1 WT (antibody)	–	–	–	–	–	1000	1550
